Source: publication PMC2276513
Non-standard residues stand in square brackets, D forms with d. No end group written: not given here. *: point of attachment. Acm = CC(=O)NC*

Biological target: IGF-I receptor (human (endogenous in HT-29)) (UniProt P08069)
Sequence of UniProt P08069 (P08069 31-1367): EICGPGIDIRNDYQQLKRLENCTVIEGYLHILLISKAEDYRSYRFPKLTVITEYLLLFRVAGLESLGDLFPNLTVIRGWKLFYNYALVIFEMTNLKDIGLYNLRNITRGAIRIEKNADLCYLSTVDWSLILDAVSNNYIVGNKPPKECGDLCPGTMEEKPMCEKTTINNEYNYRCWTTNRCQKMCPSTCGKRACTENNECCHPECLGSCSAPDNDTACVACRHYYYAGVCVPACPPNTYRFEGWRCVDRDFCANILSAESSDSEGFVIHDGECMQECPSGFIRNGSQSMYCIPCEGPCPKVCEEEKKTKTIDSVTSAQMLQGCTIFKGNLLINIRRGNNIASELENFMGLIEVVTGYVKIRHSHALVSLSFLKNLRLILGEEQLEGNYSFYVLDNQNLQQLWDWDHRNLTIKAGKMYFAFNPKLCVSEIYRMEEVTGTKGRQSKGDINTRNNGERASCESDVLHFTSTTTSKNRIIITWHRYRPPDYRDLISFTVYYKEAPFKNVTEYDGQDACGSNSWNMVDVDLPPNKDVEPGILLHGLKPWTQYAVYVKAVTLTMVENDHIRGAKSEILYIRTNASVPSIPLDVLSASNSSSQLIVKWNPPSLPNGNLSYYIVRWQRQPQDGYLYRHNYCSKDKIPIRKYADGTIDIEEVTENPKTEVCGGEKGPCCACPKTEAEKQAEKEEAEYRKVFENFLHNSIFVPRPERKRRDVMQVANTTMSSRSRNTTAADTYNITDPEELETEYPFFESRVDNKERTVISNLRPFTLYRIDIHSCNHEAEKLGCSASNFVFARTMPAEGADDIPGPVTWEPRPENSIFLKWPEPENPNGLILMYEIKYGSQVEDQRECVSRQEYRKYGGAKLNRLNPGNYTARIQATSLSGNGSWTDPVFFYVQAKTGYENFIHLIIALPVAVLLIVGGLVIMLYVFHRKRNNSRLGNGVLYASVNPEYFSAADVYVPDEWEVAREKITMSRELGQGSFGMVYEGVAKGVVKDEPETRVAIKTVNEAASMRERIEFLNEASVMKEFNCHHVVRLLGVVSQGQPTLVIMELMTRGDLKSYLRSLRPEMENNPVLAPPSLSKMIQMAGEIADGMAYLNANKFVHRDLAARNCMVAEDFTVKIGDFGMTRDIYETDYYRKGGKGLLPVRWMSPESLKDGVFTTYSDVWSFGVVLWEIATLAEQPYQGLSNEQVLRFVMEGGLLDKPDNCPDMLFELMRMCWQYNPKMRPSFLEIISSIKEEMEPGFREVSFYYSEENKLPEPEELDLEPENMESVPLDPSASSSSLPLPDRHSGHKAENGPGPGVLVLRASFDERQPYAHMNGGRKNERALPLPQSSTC

proliferation of HT-29 cells (modified Alamar Blue assay), 48 h with 0.001-1 uM M1557 in medium with 10% FBS: percent inhibition: 14 to 15%
B1: IGF-I D domain analogue peptide (M1557) (peptide)
peptide: [dY]C(Acm)[dA][dP][dL][dK][dP][dA][dK][dS][dA]-NH2
modifications: N-terminus assumed
SMILES: CC(=O)NCSC[C@H](NC(=O)[C@H](N)Cc1ccc(O)cc1)C(=O)N[C@H](C)C(=O)N1CCC[C@@H]1C(=O)N[C@H](CC(C)C)C(=O)N[C@H](CCCCN)C(=O)N1CCC[C@@H]1C(=O)N[C@H](C)C(=O)N[C@H](CCCCN)C(=O)N[C@H](CO)C(=O)N[C@H](C)C(N)=O
